Laboratory results taken from PMC2945256.

Molecular target: Elongation Factor 1 alpha (EF1α), endogenous in rat liver lysosomes (rat (endogenous in rat liver)) (UniProt P62630)
Assay: co-IP

Chain of UniProt P62630 (P62630 whole entry): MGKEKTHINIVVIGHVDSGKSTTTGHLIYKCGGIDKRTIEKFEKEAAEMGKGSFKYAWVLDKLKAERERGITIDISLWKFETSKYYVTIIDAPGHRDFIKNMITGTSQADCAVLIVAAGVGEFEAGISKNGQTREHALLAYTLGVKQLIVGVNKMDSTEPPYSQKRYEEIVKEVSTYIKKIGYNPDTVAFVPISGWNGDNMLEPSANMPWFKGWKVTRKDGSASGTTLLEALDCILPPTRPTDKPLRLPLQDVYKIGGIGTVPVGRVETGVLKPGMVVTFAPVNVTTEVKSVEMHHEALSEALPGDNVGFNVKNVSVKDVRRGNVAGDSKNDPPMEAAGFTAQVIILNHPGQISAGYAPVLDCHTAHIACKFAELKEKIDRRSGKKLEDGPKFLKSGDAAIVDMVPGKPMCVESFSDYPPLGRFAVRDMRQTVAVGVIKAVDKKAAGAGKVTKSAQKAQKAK

decrease of GFAP co-immunoprecipitated with EF1α upon addition of GTP: 47.2%
Substance: glial fibrillary acidic protein (GFAP), endogenous in rat liver lysosomes (from UniProt P47819 1-430) (natural protein)
